# Reference: patent US20250043001A1 (published 2025)
# Target: human CD28 (human, UniProt P10747 19-152)
# Experiment: -; scFv VHVL
binder,measurement,value
"1A7_H1.14_L1 (antibody, V domains shown) VH: EVQLLESGGGLVQPGGSLRLSCAASGFTFSSYYMSWVRQAPGKGLEWVSTISESGDSTYYADSVKGRFTISRDNSKNTLYLQMNSLRAEDTAVYYCAKSGPGLRQVGFDYWGQGTLVTVSS VL: not shown",Kd,230 nM
